Results taken from patent publication CN103044552A (INST PATHOGEN BIOLOGY CAMS, dated 2013).

How the values were obtained:
[1] = molecular target: T1, DEC-205分子 (human, on monocyte-derived human dendritic cells) (human, UniProt O60449 28-1722); assay: flow cytometry on human monocyte-derived DC, FITC secondary antibody
T1 construct: whole, on cells; The assay itself used whole human DC

[2] = molecular target: DEC-205 (antigen of the SPR measurement, form not stated) (UniProt O60449); assay: SPR (CM5 chip coupled with anti-human secondary antibody; gradient 1000-62.5 nM)

T1 sequence (O60449 28-1722): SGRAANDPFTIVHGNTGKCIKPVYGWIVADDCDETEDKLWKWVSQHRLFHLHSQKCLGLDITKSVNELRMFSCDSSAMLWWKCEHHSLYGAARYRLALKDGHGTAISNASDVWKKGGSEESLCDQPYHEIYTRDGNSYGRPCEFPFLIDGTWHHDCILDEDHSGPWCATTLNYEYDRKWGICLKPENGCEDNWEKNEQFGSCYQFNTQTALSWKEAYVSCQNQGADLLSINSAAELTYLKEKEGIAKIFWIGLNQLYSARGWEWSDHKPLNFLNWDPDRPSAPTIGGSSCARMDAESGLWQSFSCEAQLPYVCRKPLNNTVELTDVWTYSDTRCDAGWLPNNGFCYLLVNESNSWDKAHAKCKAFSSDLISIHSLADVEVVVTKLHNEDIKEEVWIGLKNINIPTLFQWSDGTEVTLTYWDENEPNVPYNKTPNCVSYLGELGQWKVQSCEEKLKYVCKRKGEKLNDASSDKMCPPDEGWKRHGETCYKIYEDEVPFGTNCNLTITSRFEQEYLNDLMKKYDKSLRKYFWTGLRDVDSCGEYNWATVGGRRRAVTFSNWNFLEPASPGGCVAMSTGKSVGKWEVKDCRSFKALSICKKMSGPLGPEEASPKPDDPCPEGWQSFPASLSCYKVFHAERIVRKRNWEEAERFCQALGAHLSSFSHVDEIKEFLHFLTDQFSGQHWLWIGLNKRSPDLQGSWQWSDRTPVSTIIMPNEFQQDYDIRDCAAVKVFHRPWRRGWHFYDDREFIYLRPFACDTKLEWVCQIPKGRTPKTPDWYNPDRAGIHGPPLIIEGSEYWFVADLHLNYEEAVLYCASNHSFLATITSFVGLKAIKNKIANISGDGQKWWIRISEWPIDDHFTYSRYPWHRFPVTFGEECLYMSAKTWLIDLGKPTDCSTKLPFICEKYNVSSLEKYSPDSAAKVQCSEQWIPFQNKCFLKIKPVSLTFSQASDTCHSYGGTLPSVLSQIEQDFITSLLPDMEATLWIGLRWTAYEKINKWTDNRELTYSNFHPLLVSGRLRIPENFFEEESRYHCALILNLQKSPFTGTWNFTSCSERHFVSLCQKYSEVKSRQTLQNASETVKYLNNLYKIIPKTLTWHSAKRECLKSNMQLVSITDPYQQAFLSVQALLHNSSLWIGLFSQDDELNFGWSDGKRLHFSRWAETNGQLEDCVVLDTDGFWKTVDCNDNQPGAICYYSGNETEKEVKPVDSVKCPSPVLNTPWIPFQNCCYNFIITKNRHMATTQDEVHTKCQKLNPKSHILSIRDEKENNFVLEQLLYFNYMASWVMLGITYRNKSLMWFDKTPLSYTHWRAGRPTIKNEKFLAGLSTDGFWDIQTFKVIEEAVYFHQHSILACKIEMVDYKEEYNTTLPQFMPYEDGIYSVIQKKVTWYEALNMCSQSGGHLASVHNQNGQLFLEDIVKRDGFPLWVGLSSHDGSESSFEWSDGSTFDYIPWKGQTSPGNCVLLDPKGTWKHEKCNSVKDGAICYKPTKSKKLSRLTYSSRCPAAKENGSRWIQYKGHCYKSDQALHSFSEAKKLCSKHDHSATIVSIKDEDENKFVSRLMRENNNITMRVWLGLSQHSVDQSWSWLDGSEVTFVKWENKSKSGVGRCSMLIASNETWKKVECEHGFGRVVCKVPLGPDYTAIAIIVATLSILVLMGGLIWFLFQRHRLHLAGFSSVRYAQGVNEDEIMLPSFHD

- binding result [1]: binds
- Kd [2]: 16.7 nM
- koff [2]: 0.000137 s⁻¹
- kon [2]: 8220 M⁻¹ s⁻¹
B1: 人源化的抗树突状细胞表面DEC-205分子的单克隆抗体 (antibody, V domains shown)
VH: EVQLVESGGGLVQPGRSLRLSCAASGFTFSHYYMAWVRQAPGKGLEWVAYISTDGGTTYYRDSVKGRFTISRDNAKSTLYLQMNSLRAEDTAVYYCTTGQPGYNLDYFDYWGQGTLVTVSS
VL: DIQMTQSPSSLSASVGDRVTITCQASQDIGYWLAWYQLKPGKSPQLLIYGATSLADGVPSRFSGSGSGTDYTLTISSLQPEDIATYYCQQASSVPWTFGGGTKLEIK
notes: FITC-labelled in the internalisation assay
